The results in this text go back to US10590475B2, “Detection of immune cells, in particular T cells through DNA-methylation analysis of the genes CCR6 and BLR1” (Epiontis GmbH, priority 2010, dated 2020).

The subject of the assay is CCR6^+CD4^+ memory T cells. Description: CCR6 expression on CCR6+CD4+ memory T cells after TCR stimulation (anti-CD3/anti-CD28 beads). It counts as cell-based, human. The conditions noted are these: six days, TGF-ß 10 ng/ml. As to the method:
Buffy coats (DRK Blutspendedienst, Berlin, Germany) and peripheral blood samples were obtained from healthy donors after informed consent in accordance with local ethical committee approval. PBMCs were separated with a Ficoll-Hypaque gradient (Sigma-Aldrich). Cell surface antigens were analyzed by single-parameter or multi-parameter fluorescence-activated cell sorter (FACS®, BD Biosciences) analysis using the following monoclonal antibodies: PE-anti-CCR6 (11A9) and Alexa700-anti-CD4 (RPA-T4) (both from BD Biosciences). APC-anti-CD25 (BC96) was purchased from ebioscience. PE-Cy5-anti-CD8 (B9.11), PE-Cy5-anti-CD56 (N901) and FITC-anti-CD25 (B1.49.9) from Beckman Coulter. Antibodies generated in house (DRFZ, Berlin): FITC-anti-CD45RA (4G11), Alexa405-anti-CD4 (TT1) and Alexa405-anti-CD3 (OKT3). In some experiments, CCR6 expression was detected by indirect immunofluorescence using biotinylated CCR6 (11A9, BD Biosciences) followed by staining with APC-conjugated streptavidin (SouthernBiotech). […]
Memory CD4^+CCR6^+ and CD4^+CCR6^− cells were stained with carboxyfluorescein succinimidyl ester (CFSE) and cultured either in CM containing magnetic beads as described above or 10 ng/ml IL-7 and 10 ng/ml IL-15 (R&D Systems). […] At the end of the cultures, cells were analyzed by flow cytometry and used for methylation analyses (see below).

B1: IL-4: cytokine reported to promote TCR-induced CCR6 down-regulation (protein, UniProt P05112 25-153, looked up)
Interleukin-4: HKCDITLQEIIKTLNSLTEQKTLCTELTVTDIFAASKNTTEKETFCRAATVLRQFYSHHEKDTRCLGATAQQFHRHKQLIRFLKRLDRNLWGLAGLNSCPVKEANQSTLENFLERLKTIMREKYSKCSS
On to B1, for which the “effect on TCR-induced down-regulation of CCR6 expression” value was “promoted”.
